Test results from CN116082499A (DONGGUAN PENGZHI BIOTECHNOLOGY CO LTD, dated 2023).

How the values were obtained:
DENV抗原 (DENV阳性血清) [1] = molecular target: T1, DENV抗原 (DENV阳性血清) (dengue virus (DENV), serotype ); experiment: sandwich ELISA, antibody at 6.25 ng/ml captured on goat anti-mouse IgG, DENV-positive serum, HRP-labelled DENV mAb
T1 construct: also called DENV antigen in DENV-positive serum

DENV抗原 (DENV阳性血清) [2] = molecular target: T1, DENV抗原 (DENV阳性血清); experiment: sandwich ELISA, antibody at 3.125 ng/ml captured on goat anti-mouse IgG, DENV-positive serum, HRP-labelled DENV mAb
DENV抗原 (DENV阳性血清) [3] = molecular target: T1, DENV抗原 (DENV阳性血清); experiment: sandwich ELISA, antibody at 0 ng/ml (blank without antibody), goat anti-mouse IgG, DENV-positive serum, HRP-labelled DENV mAb
DENV抗原 (DENV阳性血清) [4] = molecular target: T1, DENV抗原 (DENV阳性血清); experiment: sandwich ELISA, antibody at 12.5 ng/ml captured on goat anti-mouse IgG, DENV-positive serum, HRP-labelled DENV mAb
DENV抗原 (DENV阳性血清) [5] = molecular target: T1, DENV抗原 (DENV阳性血清); experiment: sandwich ELISA, antibody at 0.78125 ng/ml captured on goat anti-mouse IgG, DENV-positive serum, HRP-labelled DENV mAb
DENV-IV抗原(一种NS1蛋白，购自菲鹏) = molecular target: T2, DENV-IV抗原(一种NS1蛋白，购自菲鹏) (dengue virus serotype 4 (DENV-IV), UniProt P09866 775-1126, limits assumed)
T2 construct: also called DENV-IV antigen
T2 sequence (looked up): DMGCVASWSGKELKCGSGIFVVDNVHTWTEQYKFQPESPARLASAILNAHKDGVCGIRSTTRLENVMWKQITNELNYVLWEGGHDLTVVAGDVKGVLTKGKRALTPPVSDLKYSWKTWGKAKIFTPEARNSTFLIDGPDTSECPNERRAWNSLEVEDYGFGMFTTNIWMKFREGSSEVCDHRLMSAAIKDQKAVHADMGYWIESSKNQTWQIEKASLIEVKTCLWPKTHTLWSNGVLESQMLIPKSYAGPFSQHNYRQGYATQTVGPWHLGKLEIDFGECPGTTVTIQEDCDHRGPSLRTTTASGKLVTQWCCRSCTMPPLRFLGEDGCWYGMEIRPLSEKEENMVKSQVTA

DENV抗原 (DENV阳性血清) [6] = molecular target: T1, DENV抗原 (DENV阳性血清); experiment: sandwich ELISA, antibody at 1.5625 ng/ml captured on goat anti-mouse IgG, DENV-positive serum, HRP-labelled DENV mAb

B1: DF-5M32RMb1 (antibody, mouse IgG1, kappa, V domains shown)
VH: QVQLQQSGAELARPGASVKLSCKASGYTFINYWMQWVKQRPGQGLEWIGAIYPGDGDTRYTQNFKGKAALTADKSSSTAYMQLSSLASEDSAVYYCATGTEGILDYWGQGTSVTVSS
VL: DAVMTQTPLTLSVLIGQPASLSCKSSQSLLESDGKTYLNWLFQRPGQSPKRLIYLVSKLESGVPDRFTGSGSGTEFTLKISRVEAEDLGVYYCWQATHHPLTFGTGTNLELKR
notes: also called Anti-DF 5M32; Anti-DF 5M32单克隆抗体 (recombinant)
- OD (450nm, 参考630nm) (DENV抗原 (DENV阳性血清) [1]): 1.52 OD
- OD (450nm, 参考630nm) (DENV抗原 (DENV阳性血清) [2]): 0.963 OD
- OD (450nm, 参考630nm) (DENV抗原 (DENV阳性血清) [3]): 0.039 OD
- OD (450nm, 参考630nm) (DENV抗原 (DENV阳性血清) [4]): 2.1 OD
- OD (450nm, 参考630nm) (DENV抗原 (DENV阳性血清) [5]): 0.489 OD
- Kd (DENV-IV抗原(一种NS1蛋白，购自菲鹏)): 59.6 nM
- koff (DENV-IV抗原(一种NS1蛋白，购自菲鹏)): 0.00128 s⁻¹
- kon (DENV-IV抗原(一种NS1蛋白，购自菲鹏)): 21400 M⁻¹ s⁻¹
- OD (450nm, 参考630nm) (DENV抗原 (DENV阳性血清) [6]): 0.654 OD

B2: DF-5M32RMb3 (antibody, mouse IgG1, kappa, V domains shown)
VH: QVQLQQSGAELARPGASVKLSCKASGYTFLNYWMQWVKQRPGQGLEWIGAIYPGDGDTRYTQNFKGKAALTADKSSSTAYMQLSSLASEDSAVYYCATGTEGILDYWGQGTSVTVSS
VL: DAVMTQTPLTLSVLIGQPASLSCKSSQSLLESDGKTYLNWLFQRPGQSPKRLIYLVSKLESGVPDRFTGSGSGTEFTLKISRVEAEDLGVYYCWQATHHPLTFGTGTNLELKR
notes: also called DF-8F13RMb3
- OD (450nm, 参考630nm) (DENV抗原 (DENV阳性血清) [1]): 1.5 OD
- OD (450nm, 参考630nm) (DENV抗原 (DENV阳性血清) [2]): 0.952 OD
- OD (450nm, 参考630nm) (DENV抗原 (DENV阳性血清) [3]): 0.043 OD
- OD (450nm, 参考630nm) (DENV抗原 (DENV阳性血清) [4]): 1.97 OD
- OD (450nm, 参考630nm) (DENV抗原 (DENV阳性血清) [5]): 0.479 OD
- Kd (DENV-IV抗原(一种NS1蛋白，购自菲鹏)): 63.6 nM
- koff (DENV-IV抗原(一种NS1蛋白，购自菲鹏)): 0.00186 s⁻¹
- kon (DENV-IV抗原(一种NS1蛋白，购自菲鹏)): 29300 M⁻¹ s⁻¹
- OD (450nm, 参考630nm) (DENV抗原 (DENV阳性血清) [6]): 0.622 OD

B3: DF-5M32RMb2 (antibody, mouse IgG1, kappa, V domains shown)
VH: QVQLQQSGAELARPGASVKLSCKASGYTFLNYWMQWVKQRPGQGLEWIGAIYPGDGDTRYTQNFKGKAALTADKSSSTAYMQLSSLASEDSAVYYCATGTEGLLDYWGQGTSVTVSS
VL: DAVMTQTPLTLSVLIGQPASLSCKSSQSLLESDGKTYLNWLFQRPGQSPKRLIYLVSKLESGVPDRFTGSGSGTEFTLKISRVEAEDLGVYYCWQATHHPLTFGTGTNLELKR
notes: also called DF-8F13RMb2
- OD (450nm, 参考630nm) (DENV抗原 (DENV阳性血清) [1]): 1.47 OD
- OD (450nm, 参考630nm) (DENV抗原 (DENV阳性血清) [2]): 0.96 OD
- OD (450nm, 参考630nm) (DENV抗原 (DENV阳性血清) [3]): 0.031 OD
- OD (450nm, 参考630nm) (DENV抗原 (DENV阳性血清) [4]): 2.04 OD
- OD (450nm, 参考630nm) (DENV抗原 (DENV阳性血清) [5]): 0.471 OD
- Kd (DENV-IV抗原(一种NS1蛋白，购自菲鹏)): 57.8 nM
- koff (DENV-IV抗原(一种NS1蛋白，购自菲鹏)): 0.00184 s⁻¹
- kon (DENV-IV抗原(一种NS1蛋白，购自菲鹏)): 31900 M⁻¹ s⁻¹
- OD (450nm, 参考630nm) (DENV抗原 (DENV阳性血清) [6]): 0.603 OD

B4: DF-5M32RMb4 (antibody, mouse IgG1, kappa, V domains shown)
VH: QVQLQQSGAELARPGASVKLSCKASGYTFINYWMQWVKQRPGQGLEWIGAIYPGDGDTRYTQNFKGKAALTADKSSSTAYMQLSSLASEDSAVYYCATGTEGLLDYWGQGTSVTVSS
VL: DAVMTQTPLTLSVLIGQPASLSCKSSQSLLESDGKTYLNWLFQRPGQSPKRLIYLVSKLESGVPDRFTGSGSGTEFTLKISRVEAEDLGVYYCWQATHHPLTFGTGTNLELKR
notes: also called DF-8F13RMb4
- OD (450nm, 参考630nm) (DENV抗原 (DENV阳性血清) [1]): 1.49 OD
- OD (450nm, 参考630nm) (DENV抗原 (DENV阳性血清) [2]): 0.923 OD
- OD (450nm, 参考630nm) (DENV抗原 (DENV阳性血清) [3]): 0.032 OD
- OD (450nm, 参考630nm) (DENV抗原 (DENV阳性血清) [4]): 2.01 OD
- OD (450nm, 参考630nm) (DENV抗原 (DENV阳性血清) [5]): 0.482 OD
- Kd (DENV-IV抗原(一种NS1蛋白，购自菲鹏)): 52.9 nM
- koff (DENV-IV抗原(一种NS1蛋白，购自菲鹏)): 0.00176 s⁻¹
- kon (DENV-IV抗原(一种NS1蛋白，购自菲鹏)): 33200 M⁻¹ s⁻¹
- OD (450nm, 参考630nm) (DENV抗原 (DENV阳性血清) [6]): 0.631 OD
